Laboratory results as given in PMC10899660 (2024).

B1: Ece1-IV, synthetic peptide (peptide)
peptide: EDIDSVVAGIIADMPFVVRAVDTAMTSVASTKR
B2: Ece1-II, synthetic peptide (peptide)
peptide: DVAPAAPAAPADQAPTVPAPQEFNTAITKR
B3: Recombinant Cyclin H (CCNH) protein with a C-HIS tag (natural protein)
chain: MYHNSSQKRHWTFSSEEQLARLRADANRKFRCKAVANGKVLPNDPVFLEPHEEMTLCKYYEKRLLEFCSVFKPAMPRSVVGTACMYFKRFYLNNSVMEYHPRIIMLTCAFLACKVDEFNVSSPQFVGNLRESPLGQEKALEQILEYELLLIQQLNFHLIVHNPYRPFEGFLIDLKTRYPILENPEILRKTADDFLNRIALTDAYLLYTPSQIALTAILSSASRAGITMESYLSESLMLKENRTCLSQLLDIMKSMRNLVKKYEPPRSEEVAVLKQKLERCHSAELALNVITKKRKGYEDDDYVSKKSKHEEEEWTDDDLVESL
B4: Ece1-V, synthetic peptide (peptide)
peptide: DGANDDVANAVVRLPEIVARVATGVQQSIENAKR

Experiments:
Experiment in all cases: SPR
[1] = molecular target: B3
[2] = molecular target: B3
Ece1-III = molecular target: Ece1-III

Binder	Kd [1]	koff [2]	Kd (Ece1-III)	koff (Ece1-III)
B1	5.98 µM	0.000297 s⁻¹	–	–
B2	9.13 µM	0.00415 s⁻¹	–	–
B3	–	–	0.0172 µM	0.00171 s⁻¹
B4	3.16 µM	0.000719 s⁻¹	–	–
